Consider 2 molecules from patent publication CN111234017A (NANJING YOUMAI BIOTECHNOLOGY CO LTD, dated 2020).

Experiment [1] deals with 食蟹猴PD-L1蛋白 (cynomolgus monkey PD-L1 protein) (cynomolgus monkey). As to the kind of experiment: ELISA on coated cynomolgus PD-L1 protein.
Experiment [2] concerns the target T1, human PD-L1 expressed on cells (CT26 transfected with human PD-L1, HCC827, Raji-PD-L1, CHO-PDL1-OKT3) (human, UniProt Q9NZQ7 19-290).
T1 construct: whole, on cells; For CT26 the plasmid encodes human PD-L1 and HCC827 is a human tumour line; also called 过表达PD-L1的CT26细胞; HCC827细胞
Kind of experiment: flow cytometry on CT26 cells transfected with human PD-L1.

Experiment [3] concerns the target T1, human PD-L1 expressed on cells (CT26 …). Kind of experiment: flow cytometry on HCC827 cells naturally overexpressing PD-L1.
For experiment [4], the target named is T2, 人PD-L1蛋白 (human PD-L1 protein) (human, UniProt Q9NZQ7 19-238, limits assumed).
T2 construct: also called CD274; B7-H1
Kind of experiment: ELISA, human PD-L1 protein coated at 1 μg/mL, HRP secondary antibody, OD450.

Experiment [5] concerns the target T1, human PD-L1 expressed on cells (CT26 …). As to the kind of experiment: flow cytometry competition: inhibition of human PD-1-Fc binding to Raji-PD-L1 cells.
The target is the same in experiment [6]. Kind of experiment: cell-based or functional assay.
Experiment [7] addresses T2, 人PD-L1蛋白 (human PD-L1 protein). As to the kind of experiment: SPR, Biacore 8K, antibody captured on protein A sensor chip, PD-L1 protein as analyte.

T1 sequence (Q9NZQ7 19-290): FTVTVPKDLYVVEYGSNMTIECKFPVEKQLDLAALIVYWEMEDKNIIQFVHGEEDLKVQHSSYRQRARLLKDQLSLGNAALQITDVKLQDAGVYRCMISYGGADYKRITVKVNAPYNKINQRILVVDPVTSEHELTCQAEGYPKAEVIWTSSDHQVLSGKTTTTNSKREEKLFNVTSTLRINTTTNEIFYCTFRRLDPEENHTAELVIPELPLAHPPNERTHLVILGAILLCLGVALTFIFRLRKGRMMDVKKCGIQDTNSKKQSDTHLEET
T2 sequence (Q9NZQ7 19-238 limits assumed): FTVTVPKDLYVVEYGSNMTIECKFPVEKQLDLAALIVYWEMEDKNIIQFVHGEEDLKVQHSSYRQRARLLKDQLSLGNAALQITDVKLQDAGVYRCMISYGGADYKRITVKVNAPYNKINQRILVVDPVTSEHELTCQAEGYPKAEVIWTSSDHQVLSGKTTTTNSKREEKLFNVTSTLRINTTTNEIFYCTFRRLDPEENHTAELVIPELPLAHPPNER

B1: 人-鼠嵌合抗体MT02-L4 (human-mouse chimeric anti-human PD-L1 antibody MT02-L4) (antibody, human IgG1, kappa, V domains shown)
VH: EVQLQESGPSLVKPSQTLSLTCSVTGDSITSGYWSWIRKFPGNNLDYMGYISYTGSTYYSPSLIRRMSINRDTSKNQFYLQLNSVTTEDTATYYCAKYENWKEGYFDIWGAGTTVTVSS
VL: DIVMTRSQKFMSTSVGDRVSVTCKASQNVGINVAWYQQKAGQSPKALIHSATQRYSGVPDRFTGGGSGTDFTLTIDDVQSADLAEYFCQQYYGYPLTFGAGTRLELKR
notes: Mouse 13B8 variable regions joined to the human IgG1 heavy constant region and the kappa constant region
For the molecule B1, the EC50 in experiment [1] is 0.0422 µg/mL; in experiment [2] it was 0.209 µg/mL; in experiment [3], 0.0445 µg/mL; in experiment [4], 0.216 µg/mL. Further, in experiment [5], the IC50 was 0.481 µg/mL.

B2: 人源化抗体MT02-C4 (humanized anti-human PD-L1 antibody MT02-C4) (antibody, human IgG1, kappa, V domains shown)
VH: QVQLQESGPGLVKPSETLSLTCTVSGDSITSGYWSWIRQPPGKGLEYMGYISYTGSTYYSPSLIRRMTISRDTSKNQFSLKLSSVTAADTAVYYCAKYENWKEGYFDIWGQGTLVTVSS
VL: DIQMTQSPSSLSASVGDRVTITCKASQNVGINVAWYQQKPGKAPKALIYSATQRYSGVPSKFSGSGSGTDFTLTISSLQPEDFATYFCQQYYGYPLTFGQGTRLEIKR
notes: Humanized (CDR grafting with back mutations), human IgG1 / kappa
Regarding B2, in experiment [6], the “Jurkat-PD-1/NFAT-luciferase报告基因活性 (luciferase bioluminescence), EC50” value came out at 0.0838 µg/mL. For the same molecule, the values for the half-maximal effective concentration (EC50) in experiment [2], in experiment [3] and in experiment [4] were 0.378 µg/mL, 0.0864 µg/mL and 0.0651 µg/mL, respectively. For the same molecule, in experiment [5], the half-maximal inhibitory concentration (IC50) was 0.298 µg/mL. In experiment [7], this molecule showed a Kd of 0.4 nM.
